According to PMC10157491:

molecular target: T1, His6-NhaR (Escherichia coli MG1655?) (UniProt P0A9G2); assay: EMSA; conditions: NhaR EMSA: 20 mM Tris-HCl pH 8.0, 100 mM NaCl, 1 mM DTT, 10% glycerol, 125 ug/mL BSA, 10 ng DNA in 10 uL, 25 C 20 min; Fis: 10 mM Tris-HCl pH 8.0, 150 mM NaCl …
T1 sequence: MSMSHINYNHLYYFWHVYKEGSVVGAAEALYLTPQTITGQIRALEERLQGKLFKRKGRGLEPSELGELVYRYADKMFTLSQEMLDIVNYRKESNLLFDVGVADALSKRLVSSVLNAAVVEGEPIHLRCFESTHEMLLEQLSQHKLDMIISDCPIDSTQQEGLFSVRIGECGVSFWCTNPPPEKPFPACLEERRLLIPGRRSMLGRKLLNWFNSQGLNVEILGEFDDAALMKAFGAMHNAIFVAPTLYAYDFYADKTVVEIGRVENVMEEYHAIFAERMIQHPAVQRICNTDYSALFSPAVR

binding, binds:
CAATTAAATCCGTGAGTGCCGTAGCGCAGCCTTTCATCAGGACTTTCGAAAAATCCGAAATCATGCATCGGAATTTACTGATTTAATTATTTTAATCCTAATTTATTTTGAAAAAGGCATTGGGATTTATGCCGTATTCCTGAAGA (double strand) [PpgaA]
CCCGGTAATCTATTGTGGGAATTTAATTTAAGTGCAGAAGTAATATTTTCGCCGGATTTTATTCGGAATATCCTGCTTATCCTCGTGCTGTTTCTCACGTAGTCTATAATTTCCTTTTTAAGCCCACAGGAGAGCAAC (double strand) [PosmC]
CCGTCAAAAACGCATCTCACCGCTGATGGCGCAAATTCTTCAATAGCTCGTAAAAAACGAATTATTCCTACACTATAATCTGATTTTAACGATGATTCGTGCGGGGTAAAATAGTAAAAACGATCTATTCACCTGAAAGAGAAATAAAAAGTGAAACATCTGCATCGATTCTTTAGCAGTGATGCCTCGGGA (double strand) [PnhaA]
